{"source": "paper PMC10746543", "about": "(2023)", "key": {"_(Alexa488)DDB1 [1]": {"biological_target": "T1, _(Alexa488)DDB1 (human, UniProt Q16531 1-1140, SpyTag joined to SpyCatcher (S50C) labelled with Alexa488–C5–maleimide)", "T1 sequence (Q16531 whole entry)": "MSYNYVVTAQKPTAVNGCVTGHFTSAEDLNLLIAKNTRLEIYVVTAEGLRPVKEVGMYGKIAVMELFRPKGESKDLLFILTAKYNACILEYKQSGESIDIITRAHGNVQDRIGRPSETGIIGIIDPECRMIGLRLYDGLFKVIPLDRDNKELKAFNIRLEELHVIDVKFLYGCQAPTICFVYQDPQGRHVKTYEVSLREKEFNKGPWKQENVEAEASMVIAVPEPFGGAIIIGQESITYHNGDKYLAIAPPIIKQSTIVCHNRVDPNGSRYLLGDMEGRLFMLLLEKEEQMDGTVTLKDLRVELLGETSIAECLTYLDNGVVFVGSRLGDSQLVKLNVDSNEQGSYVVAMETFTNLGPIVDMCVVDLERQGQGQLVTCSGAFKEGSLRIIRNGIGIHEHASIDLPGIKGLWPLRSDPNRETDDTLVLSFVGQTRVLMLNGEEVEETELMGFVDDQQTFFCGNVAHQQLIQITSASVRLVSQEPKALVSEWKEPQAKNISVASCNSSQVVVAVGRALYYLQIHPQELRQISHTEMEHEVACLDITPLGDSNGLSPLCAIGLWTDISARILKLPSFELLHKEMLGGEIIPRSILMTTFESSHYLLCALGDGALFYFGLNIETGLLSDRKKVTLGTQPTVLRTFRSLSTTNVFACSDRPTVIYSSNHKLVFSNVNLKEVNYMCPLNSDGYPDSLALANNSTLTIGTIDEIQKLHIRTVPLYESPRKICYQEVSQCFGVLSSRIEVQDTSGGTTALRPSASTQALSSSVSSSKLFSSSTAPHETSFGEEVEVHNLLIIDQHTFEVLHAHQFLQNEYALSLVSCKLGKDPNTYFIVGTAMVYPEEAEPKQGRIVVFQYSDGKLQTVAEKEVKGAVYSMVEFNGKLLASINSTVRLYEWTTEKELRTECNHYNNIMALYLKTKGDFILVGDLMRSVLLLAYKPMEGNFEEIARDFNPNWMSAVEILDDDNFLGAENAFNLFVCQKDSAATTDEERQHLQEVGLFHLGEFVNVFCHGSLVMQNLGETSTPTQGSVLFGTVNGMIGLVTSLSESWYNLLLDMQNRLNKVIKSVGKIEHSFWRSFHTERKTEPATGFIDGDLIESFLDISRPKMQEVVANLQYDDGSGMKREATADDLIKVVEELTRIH", "assay": "FRET; compound HQ461 titration"}, "_(Alexa488)DDB1 [2]": {"biological_target": "T1, _(Alexa488)DDB1", "assay": "FRET; compound Z12 titration"}, "_(Alexa488)DDB1 [3]": {"biological_target": "T1, _(Alexa488)DDB1", "assay": "FRET; compound Z11 titration"}, "_(Alexa488)DDB1 [4]": {"biological_target": "T1, _(Alexa488)DDB1", "assay": "FRET; compound Z7 titration"}, "_(Alexa488)DDB1 [5]": {"biological_target": "T1, _(Alexa488)DDB1", "assay": "FRET; compound dCeMM3 titration"}}, "data": [{"binder": "CDK12–cyclin K_(biotin) (complex, biotin on the Avi tag (enzymatic, BirA)) chain 1: not shown chain 2: MKENKENSSPSVTSANLDHTKPCWYWDKKDLAHTPSQLEGLDPATEARYRREGARFIFDVGTRLGLHYDTLATGIIYFHRFYMFHSFKQFPRYVTGACCLFLAGKVEETPKKCKDIIKTARSLLNDVQFGQFGDDPKEEVMVLERILLQTIKFDLQVEHPYQFLLKYAKQLKGDKNKIQKLVQMAWTFVNDSLCTTLSLQWEPEIIAVAVMYLAGRLCKFEIQEWTSKPMYRRWWEQFVQDVPVDVLEDICHQILDLYSQGKQQMPH", "values": [{"measurement": "EC50", "setting": "_(Alexa488)DDB1 [1]", "value": 43, "unit": "nM"}, {"measurement": "EC50", "setting": "_(Alexa488)DDB1 [2]", "value": 833, "unit": "nM"}, {"measurement": "EC50", "setting": "_(Alexa488)DDB1 [3]", "value": 178, "unit": "nM"}, {"measurement": "EC50", "setting": "_(Alexa488)DDB1 [4]", "value": 303, "unit": "nM"}, {"measurement": "EC50", "setting": "_(Alexa488)DDB1 [5]", "value": 263, "unit": "nM"}]}]}
